According to patent publication US20230095004 (Aptitude Medical Systems, Inc., published 2023):

Key:
VEGF-121 (VEGF-A) = VEGF-121 (VEGF-A) (Homo sapiens, UniProt P15692 SEQ:1-121); assay: flow; PBSMCT, 37 C; conditions: tags: recombinant; chain copies: 2; label: biotin
VEGF-165 (VEGF-A) [1] = target: T1, VEGF-165 (VEGF-A) (Homo sapiens); assay: flow; PBSMCT, 37 C; conditions: tags: recombinant; chain copies: 2; label: biotin
T1 chain: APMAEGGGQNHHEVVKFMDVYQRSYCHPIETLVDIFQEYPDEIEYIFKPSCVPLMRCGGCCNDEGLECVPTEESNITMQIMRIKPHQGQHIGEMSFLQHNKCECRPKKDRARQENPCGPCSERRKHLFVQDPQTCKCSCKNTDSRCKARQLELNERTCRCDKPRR

VEGF-165 (VEGF-A) [2] = target: T1, VEGF-165 (VEGF-A); assay: flow; conditions: tags: recombinant; chain copies: 2
Angiopoietin-2 (Ang2) = Angiopoietin-2 (Ang2) (Homo sapiens, UniProt O15123 O15123:19-496); assay: flow; conditions: tags: His tag; R&D Systems 623-AN
Angiopoietin-2 (Ang2), sequence (O15123 19-496, one chain of several): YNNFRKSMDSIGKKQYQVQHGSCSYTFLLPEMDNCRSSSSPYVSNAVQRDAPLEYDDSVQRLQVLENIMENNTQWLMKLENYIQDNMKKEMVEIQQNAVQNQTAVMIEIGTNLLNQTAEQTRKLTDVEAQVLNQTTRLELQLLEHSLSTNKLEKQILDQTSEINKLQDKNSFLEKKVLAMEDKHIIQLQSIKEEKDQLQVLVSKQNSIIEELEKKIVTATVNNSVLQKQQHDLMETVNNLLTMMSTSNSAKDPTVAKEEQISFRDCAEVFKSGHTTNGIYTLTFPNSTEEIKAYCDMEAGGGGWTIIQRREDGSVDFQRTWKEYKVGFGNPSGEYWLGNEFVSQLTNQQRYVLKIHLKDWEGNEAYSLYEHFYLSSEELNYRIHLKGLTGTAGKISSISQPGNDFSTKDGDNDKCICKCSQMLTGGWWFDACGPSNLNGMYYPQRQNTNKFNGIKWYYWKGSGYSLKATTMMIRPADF

B1: AMS0433.3 (ssRNA)
RNA: ACCCUUGCUUGCGUAGCAUUCUGCCAGUGAGUCGGAUCUCCGCAUAUCUGCG
modifications: 2'-F all nucleotides
- Kd (VEGF-121 (VEGF-A)): 0.921 nM
- Kd (VEGF-165 (VEGF-A) [1]): 0.837 nM

B2: AMSB107 (ssRNA)
RNA: UGCAUGCAUUUUACCAGUGAGUCGGAUCUCCGCAUAGAUAAGCCAACAAACGUACAUUCUCUGUUAGUAUUUUCUGCG
modifications: 2'-F all nucleotides
- Kd (VEGF-165 (VEGF-A) [2]): 0.054 nM
- Kd (Angiopoietin-2 (Ang2)): 0.087 nM

B3: AMSB107.4 (ssRNA)
RNA: GCAUGCUUUUACCAGUGAGUCGGAUCUCCGCAUAGAUAAGCCAACAAACGUACAUUCUCUGUUAGUAUUUUCUGCG
modifications: 2'-F all nucleotides
- Kd (VEGF-165 (VEGF-A) [2]): 0.225 nM
- Kd (Angiopoietin-2 (Ang2)): 0.237 nM

B4: AMSB107.5 (ssRNA)
RNA: AUGCAUGCAUUUUUACCAGUGAGUCGGAUCUCCGCAUAGAUAAGCCAACAAACGUACAUUCUCUGUUAGUAUUUUCUGCG
modifications: 2'-F all nucleotides
- Kd (VEGF-165 (VEGF-A) [2]): 0.052 nM
- Kd (Angiopoietin-2 (Ang2)): 0.096 nM

B5: AMSB107.6 (ssRNA)
RNA: UGCAUGCAACCAGUGAGUCGGAUCUCCGCAUAGAUAAGCCAACAAACGUACAUUCUCUGUUAGUAUUUUCUGCG
modifications: 2'-F all nucleotides
- Kd (VEGF-165 (VEGF-A) [2]): 2.34 nM
- Kd (Angiopoietin-2 (Ang2)): 0.074 nM

B6: AMSB107.7 (ssRNA)
RNA: UGCAUGCACAGUGAGUCGGAUCUCCGCAUAGAUAAGCCAACAAACGUACAUUCUCUGUUAGUAUUUUCUGCG
modifications: 2'-F all nucleotides
- Kd (Angiopoietin-2 (Ang2)): 0.085 nM

B7: AMSB107.8 (ssRNA)
RNA: UUUUGCAUGCAUUUUACCAGUGAGUCGGAUCUCCGCAUAGAUAAGCCAACAAACGUACAUUCUCUGUUAGUAUUUUCUGCG
modifications: 2'-F all nucleotides
- Kd (VEGF-165 (VEGF-A) [2]): 0.048 nM
- Kd (Angiopoietin-2 (Ang2)): 0.095 nM

B8: AMSB107.9 (ssRNA)
RNA: UGCAUGCAUUACCAGUGAGUCGGAUCUCCGCAUAGAUAAGCCAACAAACGUACAUUCUCUGUUAGUAUUUUCUGCG
modifications: 2'-F all nucleotides
- Kd (VEGF-165 (VEGF-A) [2]): 0.151 nM
- Kd (Angiopoietin-2 (Ang2)): 0.15 nM

B9: AMSB107.10 (ssRNA)
RNA: UGCAUGCAUUUUUUACCAGUGAGUCGGAUCUCCGCAUAGAUAAGCCAACAAACGUACAUUCUCUGUUAGUAUUUUCUGCG
modifications: 2'-F all nucleotides
- Kd (VEGF-165 (VEGF-A) [2]): 0.051 nM
- Kd (Angiopoietin-2 (Ang2)): 0.089 nM

B10: AMSB107.11 (ssRNA)
RNA: UGCAUGCAUUUUCCAGUGAGUCGGAUCUCCGCAUAGAUAAGCCAACAAACGUACAUUCUCUGUUAGUAUUUUCUGCG
modifications: 2'-F all nucleotides
- Kd (VEGF-165 (VEGF-A) [2]): 0.057 nM
- Kd (Angiopoietin-2 (Ang2)): 0.095 nM

B11: AMSB107.12 (ssRNA)
RNA: CUGUACAGUUUUACCAGUGAGUCGGAUCUCCGCAUAGAUAAGCCAACAAACGUACAUUCUCUGUUAGUAUUUUCUGCG
modifications: 2'-F all nucleotides
- Kd (VEGF-165 (VEGF-A) [2]): 0.606 nM
- Kd (Angiopoietin-2 (Ang2)): 0.227 nM

B12: AMS0433.4 (ssRNA)
RNA: ACCCUUGCUUGCGCAGCAUUCUGCCAGUGAGUCGGAUCUCCGCAUAUCUGCG
modifications: 2'-F all nucleotides
- Kd (VEGF-121 (VEGF-A)): 1.09 nM
- Kd (VEGF-165 (VEGF-A) [1]): 0.76 nM

B13: AMSB107.13 (ssRNA)
RNA: CCGGUACCGGUUUUACCAGUGAGUCGGAUCUCCGCAUAGAUAAGCCAACAAACGUACAUUCUCUGUUAGUAUUUUCUGCG
modifications: 2'-F all nucleotides
- Kd (VEGF-165 (VEGF-A) [2]): 0.05 nM
- Kd (Angiopoietin-2 (Ang2)): 0.089 nM

B14: AMSB107.14 (ssRNA)
RNA: UGCACUGCAUUUUACCAGUGAGUCGGAUCUCCGCAUAGAUAAGCCAACAAACGUACAUUCUCUGUUAGUAUUUUCUGCG
modifications: 2'-F all nucleotides
- Kd (VEGF-165 (VEGF-A) [2]): 0.643 nM
- Kd (Angiopoietin-2 (Ang2)): 0.928 nM

B15: AMSB107.15 (ssRNA)
RNA: UGCAUCUGCAUUUUACCAGUGAGUCGGAUCUCCGCAUAGAUAAGCCAACAAACGUACAUUCUCUGUUAGUAUUUUCUGCG
modifications: 2'-F all nucleotides
- Kd (VEGF-165 (VEGF-A) [2]): 0.765 nM
- Kd (Angiopoietin-2 (Ang2)): 0.778 nM

B16: AMSB107.16 (ssRNA)
RNA: UGCAUGCAUUUUACCAGUGAGUCGGAUCUCUUUCGCAUAGAUAAGCCAACAAACGUACAUUCUCUGUUAGUAUUUUCUGCG
modifications: 2'-F all nucleotides
- Kd (Angiopoietin-2 (Ang2)): 0.08 nM

B17: AMSB107.17 (ssRNA)
RNA: GCUGUACAGCUUUUACCAGUGAGUCGGAUCUCCGCAUAGAUAAGCCAACAAACGUACAUUCUCUGUUAGUAUUUUCUGCG
modifications: 2'-F all nucleotides
- Kd (VEGF-165 (VEGF-A) [2]): 0.198 nM
- Kd (Angiopoietin-2 (Ang2)): 0.086 nM

B18: AMSB107.18 (ssRNA)
RNA: UGCAUGCAUUUUACCAGUGAGUCGGAUCUCCGCAUAGAUAAGCCAACAAACGUACAUUCUCUGUUAGUAUUUUCUGCG
modifications: 2'-F; LNA at selected positions of the VEGF consensus as printed
- Kd (VEGF-165 (VEGF-A) [2]): 0.608 nM
- Kd (Angiopoietin-2 (Ang2)): 0.079 nM

B19: AMSB107.19 (ssRNA)
RNA: UGCAUGCAUUUUACCAGUGAGUCGGAUCUCCGCAUAGAUAAGCCAACAAACGUACAUUCUCUGUUAGUAUUUUCUGCG
modifications: 2'-F; LNA at selected positions of the VEGF consensus as printed
- Kd (Angiopoietin-2 (Ang2)): 0.083 nM

B20: AMSB107.20 (ssRNA)
RNA: UGCAUGCAUUUUACCAGUGAGUCGGAUCUCCGCAUAGAUAAGCCAACAAACGUACAUUCUCUGUUAGUAUUUUCUGCG
modifications: 2'-F; LNA in stem nucleotides as printed
- Kd (VEGF-165 (VEGF-A) [2]): 0.234 nM
- Kd (Angiopoietin-2 (Ang2)): 0.253 nM

B21: AMSB107.21 (ssRNA)
RNA: UGCAUGCAUUUUACCAGUGAGUCGGAUCUCCGCAUAGAUAAGCCAACAAACGUACAUUCUCUGUUAGUAUUUUCUGCG
modifications: 2'-F; 2'-OMe in stem nucleotides (5' UGCAUGCA, internal CGCA, 3' UGCG)
- Kd (VEGF-165 (VEGF-A) [2]): 0.052 nM
- Kd (Angiopoietin-2 (Ang2)): 0.083 nM
